{
  "source": "paper PMC6365528",
  "proteins": {"B1": {"name": "CYP6DE1 (Dendroctonus ponderosae) (protein)", "chain": "MALIIAVGLLLSIILLYCVYSKWKFQHWTRKGVPQLNPRLFFGDTLPLVRGQALKDFHLGLYQKFKSTGAKCVGIYNAHMPELVPIDIILLKDIMVKDYSYFSSHGVFYHEKNVLTSHLFNIEGQSWKERRTKLTPVFTSAKMKQMFDTVASKSPGLVRLVGLSADANKPADIKEILSRFTTDVISGAAFGLECKSLYEPDNMFRAIGKEAFEPNALKLYIEYLFPRQLLGSIGYQTFSSRIVSYFSKVVNETIQYREKNNVQRNDFMQLMLQLKQHGSLVKEDGSVDVKKTETQITDREILSESFLMFLAGHETSSSTSTFALFALSQNQDIQEKVRNEINEVLERHNGKLGYDALMEMEYLDKVIRETLRKYPTVPVIPRRCTKDYQIKNTNTVIDKGTRLYIPVIGVHLDPEYYPDPERFDPERFSPENKAKRPDIAWMPFGEGPRQCLGMRFGLLQSKVALASLLPTFRFTINKAMKPPYIADAGTLVYMFKQDVLLDATRIN"}},
  "key": {"[1]": {"substrate": "CC1=CC[C@@H]2C[C@H]1C2(C)C", "assay": "cells, lysate or membranes", "conditions": "Sf9 microsomes + MPB CPR, 1 mM NADPH, 50 mM potassium phosphate pH 7.4, 30 °C, 1 h"}, "[2]": {"substrate": "CC1=CC[C@H]2C[C@@H]1C2(C)C", "assay": "cells, lysate or membranes", "conditions": "Sf9 microsomes + MPB CPR, 1 mM NADPH, 50 mM potassium phosphate pH 7.4, 30 °C, 1 h"}},
  "data": [
    {"protein": "B1", "values": [
      {"measurement": "Km", "setting": "[1]", "value": "292 ± 1", "unit": "µM"},
      {"measurement": "Vmax", "setting": "[1]", "value": 0.42, "unit": "µM/min"},
      {"measurement": "kcat", "setting": "[1]", "value": 0.17, "unit": "s⁻¹"},
      {"measurement": "kcat/Km", "setting": "[1]", "value": 576, "unit": "M⁻¹ s⁻¹"},
      {"measurement": "Km", "setting": "[2]", "value": "160 ± 1", "unit": "µM"},
      {"measurement": "Vmax", "setting": "[2]", "value": 0.96, "unit": "µM/min"},
      {"measurement": "kcat", "setting": "[2]", "value": 0.37, "unit": "s⁻¹"},
      {"measurement": "kcat/Km", "setting": "[2]", "value": 2320, "unit": "M⁻¹ s⁻¹"}
    ]}
  ]
}
